Test results taken from the DeepSol protein solubility set.

assay: soluble on expression in E. coli; label from the status in PepcDB or PDB records

Row | Sequence | soluble on expression in E. coli
1 | MAIQHPDIQPAVNHSVQVAIAGAGPVGLMMANYLGQMGIDVLVVEKLDKLIDYPRAIGIDDEALRTMQSVGLVDDVLPHTTPWHAMRFLTPKGRCFADIQPMTDEFGWPRRNAFIQPQVDAVMLEGVSRFPNVRCLFSRELEAFSQQDDEVTLHLKTAEGQREIVKAQWLVACDGGASFVRRTLNVPFEGKTAPNQWIVVDIANDPLSTPHIYLCCDPVRPYVSAALPHAVRRFEFMVMPGETEEQLREPQNMRKLLSKVLPNPDNVELIRQRVYTHNARLAQRFRIDRVLLAGDAAHIMPVWQGQGYNSGMRDAFNLAWKLALVIQGKARDALLDTYQQERRDHAKAMIDLSVTAGNVLAPPKRWQGTLRDGVSWLLNYLPPVKRYFLEMRFKPMPQYYGGALMREGEAKHSPVGKMFIQPKVTLENGDVTLLDNAIGANFAVIGWGCNPLWGMSDEQIQQWRALGTRFIQVVPEVQIHTAQDNHDGVLRVGDTQGRLRSWFAQHNASLVVMRPDRFVAATAIPQTLGKTLNKLASVMTLTRPDADVSVEKVA | soluble
2 | MVSSDVPKTQRALIFESYGGPLEIKQLPIPQPNEDELLVKMEYSGICHSDVHTWLGDFHYVSKCPMIGGHEGAGSVISVGSKVKNWQIGDKVGIKLVQGNCLNCEYCQTGHEPLCPHVWNIGVQKYGTFQEYATIRDVDAIKIPKSMNMAAAAPVLCGGVTAYKALKESEVKSGQIVAVTGAGGGLGSFAIQYARAMGMRVVAEDIVAHIREITDGGAHGVVNFAAAKVPMEKALEYVRKRGTVVFVGLAKDSKILVDTIPLIFNAVKIKGSIVGSRLDVNEAMDFVARGAVNVPLELVKLEDVAEVYTKMHDGKINSRVVVDFSL | not soluble
3 | MENIHDLWERALKSMEKKVSKPSFETWLKQTKANSIEDSTIIITAPNEFARDWLEKHYDELISETIDDLTGVRLYPKFVIPTSQLDEPFVEQELKKPMKQPPAQNGEMPNNMLNDKYTFDTFVIGSGNRFAHAASLAVAEAPAKAYNPLFIYGGVGLGKTHLMHAIGHYVMDHNPNAKVVYLSSEKFTNEFINAIRDNKAVNFRNKYRNVDVLLIDDIQFLAGKEQTQEEFFHTFNALHEDNKQIVISSDRPPKEIPTLEDRLRSRFEWGLITDITPPDLETRIAILRKKAKAENLDIPNEVMLYIANQIDTNIRELEGALIRVVAYSSLINQDMNADLAAEALKDIIPNAKPRVLTITDIQKTVGEYFHVKLEDFKAKKRTKSVAFPRQIAMYLSRELTDASLPKIGSEFGGRDHTTVIHAHEKISKLLSTDQELQDKIQDISDKLRSLEHHHHHH | soluble
4 | SVLLQMTQRLALSDAHFRRICQLIYQRAGIVLADHKRDMVYNRLVRRLRALGLDDFGRYLSMLEANQNSAEWQAFINALTTNLTAFFREAHHFPILAEHARRRHGEYRVWSAAASTGEEPYSIAITLADALGMAPGRWKVFASDIDTEVLEKARSGIYRLSELKTLSPQQLQRYFMRGTGPHEGLVRVRQELANYVEFSSVNLLEKQYNVPGPFDAIFCRNVMIYFDKTTQEDILRRFVPLLKPDGLLFAGHSENFSNLVREFSLRGQTVYALS | soluble
5 | MSLNVNFFVTCIGDALKSRMARDSVLLLEKLGCRVNFPEKQGCCGQPAINSGYIKEAIPGMKNLIAALEDNDDPIISPAGSCTYAVKSYPTYLADEPEWASRAEKVAARMQDLTSFIVNTLGVVDVGASLQGRAVYHPSCSLARKLGVKDEPLTLLKNVRGLELLTFAEQDTCCGFGGTFSVKMAEISGEMVKEKVAHLMEVRPEYLIGADVSCLLNISGRLQREGQKVKVMHIAEVLMSREGHHHHHH | not soluble
6 | MKKLMITQEAGVATVLIKNPPVNILTIDLINELNAFILSLKDDRETKVVVFKSFHEAFFIAHLDLNVINGTSGGQAASIEFNHMIANIKAMKQLSIAVVDGVARGGGNEFVMACDLAYGTENSAFAQPELYINIPTGGQGAVQFARRLGKGKALQALLTGADFTAQQAETLNIITQFVLKAELDVFLAQLLSVIVGWEIRDIVMYKEIIAASIKDEAVGTELELRYFLERAREEKTQTIIAAFLKHGGQTEREAKDMQGIFVDTAAELSK | not soluble
7 | AHHHHHHGSTQKKLIEYTNPSTSRRKITRIPIDSPDYPPLLKQIKDPPKIIYAIGNVRLLNKPAVAIVGTRQPSERGEYYAEKVAEFYAKQGFVIVSGLALGIDSIVIKTALKTGAHVIGVLPSPVNDIVPKSNEKLAEKIIRSGGLLISELPEGTKPKKYHFVRRNRIISGISFAVVVIESELKDGTMHTVKFAKQQRRIILVTNLPASGNAKLKNEGFPILDF | soluble
